# Assay: soluble on expression in E. coli; label from the status in PepcDB or PDB records
row,Sequence,soluble on expression in E. coli
1,SLGEVPSPQELIEVADAAPNAASGVLKLYRAYREQAQRLSDLSDLLAREGHETALSSTRLPIDEVRHVFENRPAYFHAIDAAAEELHKQLSTGDDLASGLRAWLQKNHGIVVRTLPVHAMPNLRRRYDRHSMRLFLSERLSQPDQLREMAMETCLLALREEIGTELEALGLKGEEARRIARFELARYAAHALMMPYGAFLAAAQRAKYDLDVLRSRFNVSFEQAANRLVSLQRPTTAAIPFFLMEIDNAGNRFRLAGAGGFPRARFGGLCPRLNIHAAFAQPGQVLVESVEMPDGDAFLTVSRTLEGPQAGFGERVRRTAVLLGCDLGQAGETVYGPAASGAAPVAIGPSCRLCERQGCLSRAEAPLTRPLGLDEMVTGLSVFDFQ,soluble
2,MVMSFIKYPLPESVLQATEQRIQWVMDNFSRICVSFSGGKDSTVMLHLTAQAARLQGKKICVLFIDWEAQFSCTIAHCEKLRALYADVIETFYWVALPLTTQNALTQYKPQWQCWEPGTEWVRQPPPWAITHPGYFSFYQPGMSFEAFVSHFAEWFSQRRPAAVLVGIRADESLNRFMTISSQRKQRFADDKPWTTSAPGGHAWYIYPLYDWKTADIWTWFAKSGEPYNPLYDLMYQAGVPLRYMRICEP,not soluble
3,MGSDKIHHHHHHMIRYPVLKEGATIGVTAPSSGVPKDLHDLVKAACERMEERGFRVVCGETVWTQEKAKSSEAKKRATELQAMMEDDAIDLMIPPWGGQLLIEVLQFLDFEQWEPKWILGYSDTSLLLLAITLNTGIATAHGTNLVDLRGEYSDDTTAMWQPVLSTKIGDSIVQHSSKKYQKEWDFERPTPCVFHLTEKTKWQGVPKQTLSINGRLLGGCIDVIRHLIGTPYGDVTRFQADVIKGAPIIWFFENCELTTTDLRRTLVQMKLAGWFDHCSGIMFGRSPTNTPVEDYTVDDVFRDLYEELKVPLMTDIDCGHVPPQLTLINGAYAEVKLNDGKGIVTQFFKE,not soluble
4,MTNPTKPIPLNFDKPRRFMPPKHFADLSADERIDALKELGLPKFRANQIARHYYGRLEADPSTMTDLPAAAREKVKDALFPQLMQPVRAVQADDGETQKTLWKLHDGTLLESVLMRYPNRATLCISSQAGCGMACPFCATGQGGLDRNLSTGEIVDQVRAASATMQAEGGRLSNIVFMGMGEPLANYKRVVSAVRQITAPVPEGFGISQRNVTVSTVGLAPAIRKLADEDLSVTLAVSLHTPDDELRNTLVPTNNRWEVAEVLDAARYYADRSGRRVSIEYALIRDVNDQGWRADMLGKKLHKALGPLVHVNLIPLNPTPGSKWDASPMDRQKEFVQRVIAQGVTCTVRDTRGQEIAAACGQLAAEER,not soluble
5,VSGAHTDVRPELRKLAQAILDGIDPAVRVAAAMASGGGPGTGKCQQVWCPLCALAALVTGEQHPLLTVIADHSLALLEVIRAIVDDIDRSAKPPPEGPPGGGQTGASGGENTNGEGSMKSHYQAIPVTIEE,not soluble
6,MAHHHHHHMSTSNEEDKWSAISAKKIAPKYRKGYYPNRDIMTPKKKTEKKELTYKNSKIAIGRTKSLRFRRDTVTFATKNINFQHRKKSILSKQKSMAEPKLKKQNTVALKRRKTMSRLNSMKKPPYTIVLNKKKVINMNKGMHPSENRKDKISGTTNTPLAARRMLARSKTKVLVDNETKIFKKENVKMVSSNPFNPIASSVESSRRNELENGKQKKELGTVGSANKRESAQHLSTNADKKKIYHNSVRNKLKSKKEEMFQNIISLTKNMKEKPLKKKYNDQIDPRDLLSVTSNNSSVAVDDDL,not soluble
7,MSLKKPALKYCGIRSLKDLQLAAESQADYLGFIFAESKRKVSPEDVKKWLNQVRVEKQVAGVFVNESIETMSRIAKSLKLDVIQLHGDEKPADVAALRKLTGCEIWKALHHQDNTTQEIARFKDNVDGFVIDSSVKGSRGGTGVAFSWDCVPEYQQAAIGKRCFIAGGVNPDSITRLLKWQPEGIDLASGIEKNGQKDQNLMRLLEERMNRYVSISEEGHHHHHH,soluble
8,MAQTAFHVEFNKAPEDQATKTHNRWHPDIPMVEWFNPGDEFRVECYDWTGGQISNDDSANDVRDVDLTRVHYLSGPFGVKGAEPGDLLVVDLLDVGALPESAWGFTGIFARENGGGFLCEHFPDARKACWDFHGIYTTSRHVPNVRWPGIIHPGLIGCLPDRALLERANKREAALLATDPNRVPPLLAPSYADTALMGQMSGEAARKAGAEAWRTVPPREHGGNCDIKNLSRGSRVYFPVYVKGGGLSMGDIHWSQGDGEITFCGAIEMAGFLDIRVDLIKDGINKYGIVNPIFKPSPIEPHFAEYLVFEGISVDEHTGEQYYLDAHVAYRRACLNAIEYLKKFGYTSEQAYIILGTAPVEGRISGIVDIPNACCTLAIPTEIFDFDIRPNAAGPSAKVGKAKVAVTSLEHHHHHH,not soluble
9,KTRPYMEEVLYVWKLKQLHNKIFRKLKSIKAAASNDDVKALTTLKFYYTTQRQVFELDNNTLTMSSVNKELEAIDQIEVDKSLHLDIASFEEGWIDTY,soluble
10,MDLFKIEANYIDIFNKEIYPASIAIANGHIASIEKINATLDEYVLPGFIDAHIHIESSFLVPSNFAHLVVAHGTVATISDPHEIANVNGIDGINFMINNSKKTEFKFFFGAPSCVPALSQEFETSGYVLNDKDIDELMKLDDIYYLAEVMDFKGVINKDIEIINKINSALKRNKVVDGHAPGLSPNLTLKYASSGISTDHECLTIEDARYKLSLGMKILIREGSAAKNFESLHPLISECSKKYCDSLMFCFDDAHPNDILNGHINLIVARAIKHGHDFFDVLKIACINPVLHYKIPVGLLRIGDPADFIITKDIKTFKINKTYINGKLVFNDGISLIPLINEIPINNFNCSKKSISDFKFSTKNKMIPVIKCISNQIITHKTMIDSNLLAPDFQSNIAEDILKIAIINRYKDNSKISIGFIKNFGIRNGAIGSTVAHDSHNIILVGSNDEYLCKAANTIIQNKGGLCALNNEKTIIMELPISGLMSTLSAERVASQYIKLNDFCKNVLGSRLDDPLMTLSFMSLTVVPHLKINDKGLFDVDSFCFVDYLEHHHHHH,not soluble
11,MTGTLAPEAMPLLSVRKLTKLFGNFAACNGIDLDIAPGEIHALLGENGAGKSTLVKMLFGVLSPTEGDIIWQGQPVSVGSPSEARRLGIGMVFQHFSLFEALTVAENIALSLDPKISLKEIAREAEQLSRAYGLPLDPNAHVADLSVGERQRIEIVRALLQNPRLIILDEPTSVLTPQEADKLFETLAKLKAEGRSVLYISHRLEEVQRICDRATVLRHGKVTGACDPRKETPASLARMMVGSDVASVSRATGEALGAPQIEVMGLSVAPRTPFAVALKSISMNVRAGEVLAIAGVAGNGQGELFDALSGEYPVYNNDAIHLRGKPVGRLGINGRRLMGAGFVPEERHGHAAVPGMSLSDNLLLARSRSDRKAFLTGGFLRIVRGSTIKAAARRISETMDVRKSGADPLAGSLSGGNLQKFIVGRELDRQPSVLVVNQPTWGVDAGAASRIRQALVDLAKAGSAVIVISQDLDEIFEVATNIAVISDGMLSEAHPVEEMTLEKIGLLMGGIHTSQSGAAQHAHLEHHHHHH,not soluble
12,MVRTCSNCGSSEIDEDAARGDATCTACGTVLEESIVVTENQFQERAGGSGHTLVGQFVSSERAAANNFNGMGSQESREMTYAKGRKVIDELGSQLRINSHCMNTAFNFYKMCVSRNLTRGRNRSSVVAVCMYITCRLENTAHLLLDFSDVTQINVFDLGRNLNYLSRSLRINLPSTDPCLYIMRFACVLDFGDKQKEVVNLATRLVQRMKRDWMSTGRRPTGICGAALLIAARSLNFNRSINDIVRVVHISEGVIRKRLDEFSQTPSGSLTIDEFSTVDLEHSEDPPAYRESRRKAREDQLRKEAEQAESMKEQLGEMEAHVEAALDKKRKEKFSKSPYARMISENLGKENDKMQTLTETVVESSGLEKGADEMVRNEIINTVFNAAEEDPCTSNSLEKYDKYRPSLESLGIKRTSEPEPEPVPHPIVNADLEEDISDSEIDSYILTESEVAIKTDYWMKANGEAMKEIEEKKRERELNGGVKKKKPRSNRKTDTTSTSVASAVEKVIAEKKLSNKVNYEMLKDLETMATGIKRDIRESTPAPVTPISIKVDSSDVTPDTLSKSEKIARGKNIRSQASESTIQKLRSIFDLTEECSETSKNSSPKVNLKVESASPSTSEVSSIEHKPFVPPARSRYAKVKPIIGAKKLAALNEVKNVHTVPEPSAPAEPIVSEAPLQVKTSSSDPIVTSTEVPSVAEPPAPIQNVEEAKPIVPVKSRYAKAKPNLKPIKQKTAVDVVTVGEGESSEPSAKRTKAEHLES,not soluble
13,MPGALSHIRVLDLSRVLAGPWAGQILADLGAEVIKIERPGSGDDTRAWGPPFLKDAEGNDTSEAAYYLSANRNKKSVTVDFTQPEGQRIVRELAAKADILLENFKVGGLKAYGLDYESLKQVNPKLIYCSITGFGQSGPYAKRAGYDFMIQGLGGLMSLTGRADNEEGAGPVKVGVALTDILTGLYSSTAVLAALAHRDVSGIGQHIDMALLDVQVACLANQTLNYLTTGVPPRRLGNAHPNIVPYQDFPTADGDMILTVGNDSQFRKFAELADHPEWADDPRFATNKARVANREVLIPLIRQATVLHTTAEWILSLERAGVPCGPINDLAQVFADPQVQARGLRVELPHPLAGTVPQVASPIRLSETPVEYRNPPPTLGQHTDEVLETLLGLDAAALERLRDGKVI,not soluble
14,PVNGALDQYSARAANILAGNLDNHPLLEITALDFRMKANSDVLIAVTGAPLTLTVGGRPCSQWEPVSVRAGESVSIRGIHRGLRAYLAIHGSIEAGTLLGSAAPDTVVGFGLQLQEGTTLLSRRSVSPVRQPYFDLPLFRLGLERPSMGSDLSVDVTDGPDVAEFGESGELLFTSEYVVSGRSNHIGLRLGGELPERTSSDEVLSRGVPVGAVEVPSREELLVLHRGRGVTAGYPVLAVVTSTGLDVLAQARPGDKVRFRKTT,not soluble
15,MSDPAGGKALRRDAAENRQRLLDAAATVFSARGLDVGVDEIARVAGVGIGTLYRRFPTKDALISELVRQVLEDFLTLAHEALSAPEGEGLEQVLYGSGAILASNRGCLSRMWNDDQTTVLRNEYRRILFELLAGAKQHGRIREDATEADLDLIFWSLRGVVATTRGVTDTGWRRILAVMIAGLRPGAERLDAAPLSAQDVAQIMENLWPR,not soluble
16,MGSDKIHHHHHHPVAIIGGGPVGLAAAAHLAVRDVPFVLFEGKSEVGASILEWKHVSLFSPWKYNIDRAAKSLLEKESWKEPAGDRLPTGEQLVRDYLQPLAETKALKPYIYTNAPVQSIYRKGIDKIKDHNRENTPFIIRYKQDNDQKTLRARAVIDATGTWFSPNPIGAGGVPAIGEEEAKDSIYYGIPDVKGKDRSRYEGKTILVVGSGHSAIHTLLDLAQLKEAAPSTRILWAIRRNSPNGLFGGGQEDALPARGQLGLALEALLSKQKVELISSFEMEQIDRVEGRLSVVGVQNESPISLPLVDEIVANTGARPTVDYHRDIRYQLDSKLESVPALAPLIDPNIHSCGTVRPHGEKELRQPEKNFYIAGVKSYGRAPTFLLATGYEQVRSIVASLAGSKKEAERVELQLPKTGVCKSDFLAKRSCC,not soluble
17,MSPRNDSTRKHRKSRSIKDDQHYPPVSFVGVESVGIIECPGSNHLSLASIPTTEFKIPDELALWVRGRIDNVAPKHPCDRRGQQPLAKKEISMNSSRSNSSFPARSPAIMTLMGGVPEAEKEYNVGKDGLLKVSKMMEGGKRYEVSANDRFTVFQQSAGQTCLFTFKA,not soluble
18,GPGSMSKLISDAIAAEDASKWNTSYELYPPRSEKAEEDMMKVLVPNFMHQSPVFLDLTWGAGGRTSGTTMRLCKDLQHAHPDTPINMHITCTNTPKGLIKETLEFAKTHGIRNILALRGDPPSGEEFQVDPDGFACARDLVRYIRDTYGDYFCVSVAGYPEGHPSRIAENGTISHEDHQKELEYLKEKVDAGASFIITQLFYDASLYVKFVKRCREVGITVPILAGLLPITTYAGFVRMVSLCKTSVPSDVKKRVEELKENPDGLKEYGVEQCVQMIECIRASGLDYHHLHFYTLNNSAQIFKILKRLNALVE,soluble
